Experimental findings from the supplement of paper PMC10567573 are described below.

B1: FBF1 (parent)
chain: YQRPQDSEDMWGDEDFTFGAYQPT
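Also: lentivirally expressed fusions sorted by FACS into six bins by GFP to DsRed ratio, PSI derived from sequencing read proportions per bin multiplied by bin number.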

The variants in the data set derive from B1. Put plainly: protein stability index of a GFP-peptide fusion (GPS, HEK-293T) (PSI 1-6); higher = more stable. The settings on record: c terminus: a fixed tail appended.
As to YQRPQDSEDMWGPEDFTFGAYQPT [D13P], the protein stability index was determined as 1.73.
Next, YQRPQDSEDMWGMEDFTFGAYQPT [D13M]: 2.32.
YQRPQDSEDMWGWEDFTFGAYQPT [D13W]: the protein stability index was found to be 1.53.
Next, YQRPQDSEDMWGYEDFTFGAYQPT [D13Y]: 1.72.
Turning to YQRPQDSEDMWGIEDFTFGAYQPT [D13I], the protein stability index turned out to be 2.13.
With YQRPQDSEDMWGVEDFTFGAYQPT [D13V], the protein stability index is 1.8.
Next, YQRPQDSEDMWGEEDFTFGAYQPT [D13E]: 3.13; YQRPQDSEDMWGSEDFTFGAYQPT [D13S]: 1.85.
As for YQRPQDSEDMWGFEDFTFGAYQPT [D13F], the protein stability index amounted to 2.18.
Next, YQRPQDSEDMWGKEDFTFGAYQPT [D13K]: 2.52; YQRPQDSEDMWGNEDFTFGAYQPT [D13N]: 2.07.
Next, YQRPQDSEDMWGQEDFTFGAYQPT [D13Q]: 1.79; YQRPQDSEDMWGHEDFTFGAYQPT [D13H]: 1.76; YQRPQDSEDMWGREDFTFGAYQPT [D13R]: 2.89.
Next, YQRPQDSEDMWGAEDFTFGAYQPT [D13A]: 2.1; YQRPQDSEDMWGTEDFTFGAYQPT [D13T]: 1.77.
Take YQRPQDSEDMWGLEDFTFGAYQPT [D13L]: the protein stability index amounted to 2.45.
The same measure for YQRPQDSEDMWGCEDFTFGAYQPT [D13C]: 1.74; for YQRPQDSEDMWGGEDFTFGAYQPT [D13G]: 2.28; for YQRPQDSEDMWGDWDFTFGAYQPT [E14W]: 2.21.
As for YQRPQDSEDMWGDCDFTFGAYQPT [E14C], the protein stability index worked out at 2.11.
In the case of YQRPQDSEDMWGDYDFTFGAYQPT [E14Y], the protein stability index stood at 2.27.
Next, YQRPQDSEDMWGDQDFTFGAYQPT [E14Q]: 1.94; YQRPQDSEDMWGDPDFTFGAYQPT [E14P]: 2.03; YQRPQDSEDMWGDADFTFGAYQPT [E14A]: 1.67.
In the case of YQRPQDSEDMWGDHDFTFGAYQPT [E14H], the protein stability index is 2.84.
As to YQRPQDSEDMWGDFDFTFGAYQPT [E14F], the protein stability index is 1.78.
In the case of YQRPQDSEDMWGDMDFTFGAYQPT [E14M], the protein stability index is 1.26.
Next, YQRPQDSEDMWGDGDFTFGAYQPT [E14G]: 1.88; YQRPQDSEDMWGDKDFTFGAYQPT [E14K]: 1.46; YQRPQDSEDMWGDSDFTFGAYQPT [E14S]: 2.43.
Next, YQRPQDSEDMWGDTDFTFGAYQPT [E14T]: 2.15; YQRPQDSEDMWGDVDFTFGAYQPT [E14V]: 2.36.
The same measure for YQRPQDSEDMWGDIDFTFGAYQPT [E14I]: 1.82; for YQRPQDSEDMWGDDDFTFGAYQPT [E14D]: 2.58.
As for YQRPQDSEDMWGDRDFTFGAYQPT [E14R], the protein stability index was 2.05.
Next, YQRPQDSEDMWGDNDFTFGAYQPT [E14N]: 1.8; YQRPQDSEDMWGDLDFTFGAYQPT [E14L]: 1.66; YQRPQDSEDMRGDEDFTFGAYQPT [W11R]: 4.43.
Regarding YQRPQDSEDMLGDEDFTFGAYQPT [W11L], the protein stability index is 4.13.
The same measure for YQRPQDSEDMEGDEDFTFGAYQPT [W11E]: 4.5; for YQRPQDSEDMTGDEDFTFGAYQPT [W11T]: 4.33; for YQRPQDSEDMYGDEDFTFGAYQPT [W11Y]: 3.74.
For the variant YQRPQDSEDMKGDEDFTFGAYQPT [W11K], the protein stability index came out at 4.27.
Next, YQRPQDSEDMNGDEDFTFGAYQPT [W11N]: 4.44; YQRPQDSEDMPGDEDFTFGAYQPT [W11P]: 4.87; YQRPQDSEDMAGDEDFTFGAYQPT [W11A]: 4.45.
The same measure for YQRPQDSEDMSGDEDFTFGAYQPT [W11S]: 4.79; for YQRPQDSEDMIGDEDFTFGAYQPT [W11I]: 4.19.
As to YQRPQDSEDMHGDEDFTFGAYQPT [W11H], the protein stability index was 4.54.
The same measure for YQRPQDSEDMVGDEDFTFGAYQPT [W11V]: 4.25; for YQRPQDSEDMGGDEDFTFGAYQPT [W11G]: 4.67.
The same measure for YQRPQDSEDMMGDEDFTFGAYQPT [W11M]: 4.13; for YQRPQDSEDMQGDEDFTFGAYQPT [W11Q]: 4.78.
The same measure for YQRPQDSEDMCGDEDFTFGAYQPT [W11C]: 4.55; for YQRPQDSEDMFGDEDFTFGAYQPT [W11F]: 3.83.
For the variant YQRPQDSEDMDGDEDFTFGAYQPT [W11D], the protein stability index is 4.54.
Next, YQRPQDSEDMWGDEGFTFGAYQPT [D15G]: 2.13; YQRPQDSEDMWGDECFTFGAYQPT [D15C]: 1.77.
In the case of YQRPQDSEDMWGDEPFTFGAYQPT [D15P], the protein stability index amounted to 2.45.
The same measure for YQRPQDSEDMWGDEHFTFGAYQPT [D15H]: 2.05; for YQRPQDSEDMWGDESFTFGAYQPT [D15S]: 2.16.
Next, YQRPQDSEDMWGDEEFTFGAYQPT [D15E]: 2.75.
Consider YQRPQDSEDMWGDEFFTFGAYQPT [D15F], for which the protein stability index came out at 1.52.
The same measure for YQRPQDSEDMWGDEQFTFGAYQPT [D15Q]: 2.41; for YQRPQDSEDMWGDETFTFGAYQPT [D15T]: 2.43; for YQRPQDSEDMWGDENFTFGAYQPT [D15N]: 2.13.
The same measure for YQRPQDSEDMWGDEAFTFGAYQPT [D15A]: 2.31.
Next, YQRPQDSEDMWGDERFTFGAYQPT [D15R]: 2.15; YQRPQDSEDMWGDEKFTFGAYQPT [D15K]: 1.73.
On to YQRPQDSEDMWGDELFTFGAYQPT [D15L], for which the protein stability index was found to be 2.04.
The same measure for YQRPQDSEDMWGDEIFTFGAYQPT [D15I]: 2.11; for YQRPQDSEDMWGDEMFTFGAYQPT [D15M]: 1.9.
Turning to YQRPQDSEDYWGDEDFTFGAYQPT [M10Y], the protein stability index worked out at 3.11.
Consider YQRPQDSEDWWGDEDFTFGAYQPT [M10W], for which the protein stability index was 2.81.
The same measure for YQRPQDSEDMWFDEDFTFGAYQPT [G12F]: 2.41; for YQRPQDSEDMWQDEDFTFGAYQPT [G12Q]: 3.13.
The same measure for YQRPQDSEDMWWDEDFTFGAYQPT [G12W]: 2.71; for YQRPQDSEDMWHDEDFTFGAYQPT [G12H]: 2.85; for YQRPQDSEDMWNDEDFTFGAYQPT [G12N]: 3.17.
Next, YQRPQDSEDMWYDEDFTFGAYQPT [G12Y]: 2.55; YQRPQDSEDMWRDEDFTFGAYQPT [G12R]: 2.96.
On to YQRPQDSEDMWPDEDFTFGAYQPT [G12P], for which the protein stability index was 3.79.
Next, YQRPQDSEDMWIDEDFTFGAYQPT [G12I]: 2.43; YQRPQDSEDMWDDEDFTFGAYQPT [G12D]: 4.15; YQRPQDSEDMWADEDFTFGAYQPT [G12A]: 2.92.
Next, YQRPQDSEDMWVDEDFTFGAYQPT [G12V]: 2.48.
The same measure for YQRPQDSEDMWLDEDFTFGAYQPT [G12L]: 2.28; for YQRPQDSEDMWSDEDFTFGAYQPT [G12S]: 3.13; for YQRPQDSEDMWTDEDFTFGAYQPT [G12T]: 2.55.
For the variant YQRPQDSEDMWKDEDFTFGAYQPT [G12K], the protein stability index worked out at 2.37.
The same measure for YQRPQDSEDMWEDEDFTFGAYQPT [G12E]: 3.71; for YQRPQDSEDMWCDEDFTFGAYQPT [G12C]: 2.28.
As to YQRPQDSEDMWMDEDFTFGAYQPT [G12M], the protein stability index is 3.12.
